Legend:
[1] = target: RSV-F (Strain A2) (respiratory syncytial virus (Strain A2)) (UniProt P03420); assay: ELISA, antigen coated on plate, same conditions as R66
[2] = target: RSV-F (Strain RSS-2) (respiratory syncytial virus (Strain RSS-2)) (UniProt P11209); assay: as above
RSV-F (Strain A2) = target: T1, RSV-F (Strain A2) (respiratory syncytial virus (Strain A2), UniProt P03420 26-529); assay: ELISA, antigen coated on plate, anti-human IgG-HRP detection
T1 construct: Bought protein (Sino Biological Inc.), coated on the ELISA plate; also called glycoprotein F; antigen F of RSV
T1 sequence (P03420 26-529): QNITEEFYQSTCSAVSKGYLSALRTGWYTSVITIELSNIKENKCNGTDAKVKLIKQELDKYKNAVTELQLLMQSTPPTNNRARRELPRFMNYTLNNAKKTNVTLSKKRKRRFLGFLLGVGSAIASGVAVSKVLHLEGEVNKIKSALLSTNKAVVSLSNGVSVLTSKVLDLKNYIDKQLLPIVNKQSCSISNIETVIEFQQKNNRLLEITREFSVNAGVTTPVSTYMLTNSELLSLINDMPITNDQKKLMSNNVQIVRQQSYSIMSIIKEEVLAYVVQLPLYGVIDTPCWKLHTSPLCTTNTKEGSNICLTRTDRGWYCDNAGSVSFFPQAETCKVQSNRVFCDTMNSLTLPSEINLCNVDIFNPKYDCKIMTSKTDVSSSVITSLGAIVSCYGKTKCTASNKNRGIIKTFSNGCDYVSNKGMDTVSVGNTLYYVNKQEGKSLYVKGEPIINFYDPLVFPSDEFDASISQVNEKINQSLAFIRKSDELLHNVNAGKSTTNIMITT
Description: (§1) To prepare coating antigen solution, RSV-F (Strain A2) and RSV-F (Strain RSS-2) (purchased from Sino Biological Inc.) were diluted with PBS (1×) (pH 7.4) buffer to the final concentration of 2 ng/μl. 100 μl of the coating antigen solution was pipetted into each well of a 96-well plate, coated overnight at 2-8° C., and washed 5 times with PBST, then each well was added with 200 μl of blocking solution for blocking for 2 hours at 37° C., and washed 5 times with PBST for 1 minute each wash after completion of blocking.
(§2) Two parallel experiments were performed, and two blank wells were set up to replace the primary antibody with PBST, incubated for 90 minutes at 37° C. and then washed 5 times with PBST.
(§3) The secondary antibody was diluted 5,000 times with the antibody diluent (PBST+1% BSA). 100 μl of diluent was added to each well, incubated for 1 hour at 37° C., then washed 5 times with PBST, added with TMB substrate solution with 100 μl/well, incubated for 15 minutes at room temperature. After the completion of the incubation H₂SO₄ stop solution was added to terminate the reaction. The absorbance of OD₄₅₀ was read on the microplate reader.

RSV-F (Strain RSS-2) = target: T2, RSV-F (Strain RSS-2) (respiratory syncytial virus (Strain …, UniProt P11209 26-529)); assay: as above
T2 construct: Bought protein (Sino Biological Inc.), coated on the ELISA plate; also called glycoprotein F; antigen F of RSV
T2 sequence (P11209 26-529): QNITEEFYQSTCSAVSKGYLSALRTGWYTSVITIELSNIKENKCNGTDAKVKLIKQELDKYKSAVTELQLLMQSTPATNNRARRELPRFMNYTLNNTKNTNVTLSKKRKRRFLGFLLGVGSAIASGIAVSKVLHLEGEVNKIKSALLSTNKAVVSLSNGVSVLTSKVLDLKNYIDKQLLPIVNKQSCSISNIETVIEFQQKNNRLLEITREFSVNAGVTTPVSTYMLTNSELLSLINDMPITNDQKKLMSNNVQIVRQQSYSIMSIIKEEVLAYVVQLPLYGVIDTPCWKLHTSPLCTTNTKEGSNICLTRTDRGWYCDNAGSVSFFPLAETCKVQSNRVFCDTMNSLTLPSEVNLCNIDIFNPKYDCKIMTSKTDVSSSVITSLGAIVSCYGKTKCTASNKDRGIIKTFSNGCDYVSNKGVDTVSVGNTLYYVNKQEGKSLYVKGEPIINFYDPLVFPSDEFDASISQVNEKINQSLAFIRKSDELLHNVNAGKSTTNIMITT
Description: as §1, §2, §3

RSV-F (Strain A2) (respiratory syncytial virus (Strain A2)), sequence (P03420 26-529): as the sequence (P03420 26-529) above
RSV-F (Strain RSS-2) (respiratory syncytial virus (Strain RSS-2)), sequence (P11209 26-529): as the sequence (P11209 26-529) above

## Palivizumab Synagis (antibody)
[1]
  EC50: 4.88 ng/mL
[2]
  EC50: 1.88 ng/mL

B1: fully human anti-RSV monoclonal antibody R66 (antibody, V domains shown)
VH: EVQLVESGGGLVQPGRSLRLSCTASGFTFADYSMTWVRQAPGKGLEWVGLIKRNAYGGTTEYAASVRGRFTISRDDSRSIAYLQMHSLKSEDTAVYFCLRGYSGYDWEGLDAFEVWGQGTMVTVSS
VL: DIQMTQSPSAMSASVGDRVTITCRASQGSSTYLAWFQQKPGKVPKRLIYAVSSLQSGVPSRFSGSGSGTEFTLTISSLQPEDSATYYCLQHNSFPLTFGQGTKVEIK
notes: expressed in 293T cells, Protein A purified; heavy chain about 50 kDa, light chain about 22 kDa; also called R66 antibody
RSV-F (Strain A2)
  EC50: 1.79 ng/mL
RSV-F (Strain RSS-2)
  EC50: 1.46 ng/mL

From patent US20180264103A1 (ELITEIMMUNE, published 2018)
